Values quoted from earlier work as cited in article PMC8100458.

What was measured:
Asef (Homo sapiens) = Asef (Homo sapiens) (UniProt Q9NR80); assay: ITC
[1] = biological target: Asef peptide 179-193 (Homo sapiens); assay: FP competition
[2] = biological target: Asef peptide 181-192 (Homo sapiens); assay: FP competition
[3] = biological target: Asef peptide 183-190 (Homo sapiens); assay: FP competition
[4] = biological target: Asef peptide 187-192 (Homo sapiens); assay: FP competition

Chain of UniProt Q9NR80 (Q9NR80 whole entry): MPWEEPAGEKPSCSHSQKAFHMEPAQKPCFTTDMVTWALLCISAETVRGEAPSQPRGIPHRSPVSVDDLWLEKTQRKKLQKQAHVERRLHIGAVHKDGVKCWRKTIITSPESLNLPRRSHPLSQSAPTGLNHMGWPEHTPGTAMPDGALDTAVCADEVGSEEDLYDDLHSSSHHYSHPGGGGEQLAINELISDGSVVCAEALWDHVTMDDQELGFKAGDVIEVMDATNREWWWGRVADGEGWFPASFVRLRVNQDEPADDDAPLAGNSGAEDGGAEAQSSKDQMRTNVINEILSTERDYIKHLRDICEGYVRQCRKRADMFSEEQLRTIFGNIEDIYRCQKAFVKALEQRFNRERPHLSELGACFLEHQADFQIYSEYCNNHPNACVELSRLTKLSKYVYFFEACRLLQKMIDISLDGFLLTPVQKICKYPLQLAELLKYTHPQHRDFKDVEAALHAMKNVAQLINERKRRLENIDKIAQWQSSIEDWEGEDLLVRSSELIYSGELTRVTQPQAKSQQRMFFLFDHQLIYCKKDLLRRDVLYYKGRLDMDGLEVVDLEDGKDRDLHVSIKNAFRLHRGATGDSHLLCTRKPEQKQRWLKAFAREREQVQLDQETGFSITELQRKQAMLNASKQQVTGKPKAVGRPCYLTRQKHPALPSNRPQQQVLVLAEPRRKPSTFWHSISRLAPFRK

Kd (Asef (Homo sapiens)): 0.0178 µM | Ki [1]: 17.1 µM | Ki [2]: 49.1 µM | Ki [3]: > 300 µM | Ki [4]: > 300 µM
Substance: APC (from UniProt P25054)
